From US20240108766A1 (Bayer, published 2024)
Substitutions are numbered along the chain they refer to.

T1: human LRRC15 extracellular domain with C-terminal His tag (human, UniProt Q8TF66 22-538)
T1 construct: Recombinant, made in HEK293; the entry holds the extracellular domain and the His tag; SPR analyte; also called TPP-1545; hLRRC15 CT-His
T1 sequence: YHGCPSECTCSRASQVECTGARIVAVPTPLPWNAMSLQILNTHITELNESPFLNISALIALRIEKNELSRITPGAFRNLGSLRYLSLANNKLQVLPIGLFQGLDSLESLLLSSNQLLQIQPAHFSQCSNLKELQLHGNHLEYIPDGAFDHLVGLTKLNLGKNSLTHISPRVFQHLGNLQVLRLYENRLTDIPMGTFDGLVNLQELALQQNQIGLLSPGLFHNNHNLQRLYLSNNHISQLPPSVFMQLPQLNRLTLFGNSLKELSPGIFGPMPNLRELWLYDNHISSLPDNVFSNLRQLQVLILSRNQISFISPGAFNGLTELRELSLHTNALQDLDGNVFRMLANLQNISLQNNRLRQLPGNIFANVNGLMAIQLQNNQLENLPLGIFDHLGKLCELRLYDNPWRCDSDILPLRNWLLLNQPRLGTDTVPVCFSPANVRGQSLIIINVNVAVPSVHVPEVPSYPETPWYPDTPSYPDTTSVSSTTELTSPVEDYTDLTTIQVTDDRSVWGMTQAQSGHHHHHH

T2: human LRRC15 expressed on cells (human, UniProt Q8TF66 22-581)
T2 construct: whole, on cells; On HEK293 cells transfected with LRRC15/ZsGreen1 (Retrogenix), on HT29 cells transfected with human LRRC15, and endogenous on Saos-2; also called LRRC15/ZsGreen1 transfected HEK293 cells; HT29-LRRC15
T2 sequence (looked up): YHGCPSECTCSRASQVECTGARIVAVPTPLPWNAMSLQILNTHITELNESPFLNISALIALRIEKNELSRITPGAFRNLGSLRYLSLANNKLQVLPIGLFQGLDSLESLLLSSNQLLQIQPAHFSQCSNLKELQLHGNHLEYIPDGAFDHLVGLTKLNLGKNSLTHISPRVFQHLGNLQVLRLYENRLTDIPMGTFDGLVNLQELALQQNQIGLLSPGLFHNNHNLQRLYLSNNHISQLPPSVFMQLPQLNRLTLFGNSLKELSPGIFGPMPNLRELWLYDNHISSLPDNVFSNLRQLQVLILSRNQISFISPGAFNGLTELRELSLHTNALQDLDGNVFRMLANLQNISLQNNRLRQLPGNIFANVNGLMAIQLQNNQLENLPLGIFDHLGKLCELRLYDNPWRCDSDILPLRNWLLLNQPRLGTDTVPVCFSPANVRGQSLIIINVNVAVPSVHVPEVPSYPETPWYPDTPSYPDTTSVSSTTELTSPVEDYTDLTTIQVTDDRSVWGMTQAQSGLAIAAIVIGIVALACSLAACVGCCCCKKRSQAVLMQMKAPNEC

B1: TPP-14389 (antibody, human IgG1, kappa, V domains shown)
VH: EVQLLESGGGLVQPGGSLRLSCAASGFTFSGYMMSWVRQAPGKGLEWVSGIYPSPGYTYYADSVKGRFTISRDNSKNTLYLQMNSLRAEDTAVYYCAREKASDLFGSYSEALDYWGQGTLVTVSS
VL: DIQMTQSPDSLSASVGDRVTITCRASQDVGSWLAWYQQKPGKAPKLLIFAASSLESGIPSRFSGSGSGTDFTLTISSLQPEDFATYYCQQANGFPLTFGGGTKVEIKR
notes: also called 13612-rec02-hIgG1Kappa
B2: TPP-17421 (antibody, human IgG1, kappa, V domains shown)
VH: EVQLVQSGAEVKKPGASVKVSCKASGYKFSSYWIEWVKQAPGQGLEWIGEILPGSDWTNYNEKFKDRATFTSDTSINTAYMELSRLRSDDTAVYYCARDRGNYRAWFQYWGQGTLVTVSS
VL: DIQMTQSPSSLSASVGDRVTITCRASQSISSYLNWYQQKPGGAPKFLIYYASSLQSGVPSRFSGSGSGTDYTLTISSLQPEDFATYYCQQGLELPWTFGGGTKVEIKR
notes: also called 438H-M306-C11-hIgG1Kappa
B3: TPP-17078 (antibody, human IgG1, kappa, V domains shown)
VH: B2 VH with W57T, Q108G
VL: B2 VL with L92F, E93S
notes: also called 438H-M308-H05-hIgGkappa
B4: TPP-12942 (antibody, human IgG1, kappa, V domains shown)
VH: B2 VH with W57T, Q108G
VL: B2 VL with S28D, S31N, P44V, A51T, S53R, Q55H, Y87F, L92E, E93A
notes: Prior art humanized IgG1 kappa antibody, used as comparator; also called huM25; huM25-hIgG1Kappa

Target: T1, human LRRC15 extracellular domain with …
Assay: SPR Biacore T200, antibody captured, LRRC15 analyte, 20°C
Procedure: (§1) To assess if anti-LRRC-15 antibodies show a difference in binding at different temperatures, binding assays were conducted using surface plasmon resonance (SPR). Binding assays were performed on a Biacore T200 instrument at temperatures of 10° C., 20° C., 25° C. and 37° C. with assay buffer HBS EP+, 1 mg/ml BSA (bovine serum albumine), 300 mM NaCl, 0.05% NaN₃. Antibodies were captured via anti-human Fc IgGs covalently amine coupled to a CM5 sensor chip and human LRRC15 was used as an analyte in a concentration series from 1.56-200 nM in multi cycle kinetics mode. Pre-experiments were conducted to have an equal capture level at each temperature. Obtained sensorgrams were fitted to a 1:1 Langmuir binding model to derive kinetic data.

Kd [nM] | Binder
2 | B1
0.82 | B2
0.88 | B3

Target: T1, human LRRC15 extracellular domain with …
Assay: calculated from SPR kd, 25°C
Procedure: as §1

Complex Half Life [min] | Binder
8.9 | B1
218 | B2
127 | B3

Target: T1, human LRRC15 extracellular domain with …
Assay: SPR Biacore T200, antibody captured, LRRC15 analyte, 37°C
Procedure: as §1

Kd [nM] | Binder
66 | B1
72 | B4
2.4 | B2
9.9 | B3

Target: T2, human LRRC15 expressed on cells
Assay: flow cytometry, transfected HEK293, 0.1 µg/ml

Median Fluorescence AF647 | Binder
213000 | B4
102000 | B2
284000 | B3

Target: T2, human LRRC15 expressed on cells
Assay: flow cytometry, transfected HEK293, 0 µg/ml

Median Fluorescence AF647 | Binder
594 | B4
588 | B2
597 | B3

Target: T1, human LRRC15 extracellular domain with …
Assay: SPR thermodynamics (van't Hoff/Eyring), 10-37°C
Procedure: as §1, with “Thermodynamics help to explain why an interaction is happening and what the driving forces for the interaction are. To” for “To”, “the thermodynamic parameters for anti-LRRC15” for “if anti-LRRC-15”, “antibodies” for “antibodies show a difference in binding at different temperatures,”, “BSA,” for “BSA (bovine serum albumine),”, “NaN3.” for “NaN₃.”, “data. Thermodynamic parameters were obtained using the integrated thermodynamics wizard in the Biacore T200 software. Van′t Hoff and Eyring plots were calculated and plotted and thermodynamic parameters were derived.” for “data.”

-TΔS [kJ/mol] | ΔG^0 [kJ/mol] | ΔH^0 [kJ/mol] | Binder
81 | -47 | -130 | B1
28 | -44 | -71 | B4
-7.6 | -51 | -44 | B2
43 | -50 | -93 | B3

Target: T1, human LRRC15 extracellular domain with …
Assay: calculated from SPR kd, 20°C
Procedure: as §1

Complex Half Life [min] | Binder
24.6 | B1
13.1 | B4
269 | B2
251 | B3
